Assay [1] deals with T1, 14-3-3η (human, UniProt Q04917 1-246).
T1 chain: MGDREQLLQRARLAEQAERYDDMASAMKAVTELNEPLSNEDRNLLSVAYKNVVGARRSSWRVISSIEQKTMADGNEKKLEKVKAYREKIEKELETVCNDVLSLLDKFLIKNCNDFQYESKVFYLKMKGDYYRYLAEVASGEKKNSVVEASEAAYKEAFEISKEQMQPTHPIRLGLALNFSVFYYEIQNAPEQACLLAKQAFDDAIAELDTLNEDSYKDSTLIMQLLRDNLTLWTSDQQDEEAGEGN
Description: FP.

Assay [2] addresses T2, 14-3-3ζ (human, UniProt P63104 1-245).
T2 chain: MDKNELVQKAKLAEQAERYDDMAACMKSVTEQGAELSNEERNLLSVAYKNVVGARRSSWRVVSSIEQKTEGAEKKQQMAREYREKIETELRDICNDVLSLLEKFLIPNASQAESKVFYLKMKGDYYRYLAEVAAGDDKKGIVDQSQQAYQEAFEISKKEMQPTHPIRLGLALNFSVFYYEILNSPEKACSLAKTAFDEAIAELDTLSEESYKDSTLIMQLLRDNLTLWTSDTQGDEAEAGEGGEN
Description: FP.

In another assay the target is T3, 14-3-3β (human, UniProt P31946 1-246).
T3 chain: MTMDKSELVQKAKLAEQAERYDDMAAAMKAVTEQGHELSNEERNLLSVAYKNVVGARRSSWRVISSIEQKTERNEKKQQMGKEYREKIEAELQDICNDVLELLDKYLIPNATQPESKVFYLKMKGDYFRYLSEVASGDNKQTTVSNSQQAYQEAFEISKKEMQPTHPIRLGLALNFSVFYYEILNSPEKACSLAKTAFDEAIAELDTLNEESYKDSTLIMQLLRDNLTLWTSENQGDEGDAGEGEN
As to the kind of experiment: FP.

Assay [3] concerns the target T4, 14-3-3γ (human, UniProt P61981 1-247).
T4 chain: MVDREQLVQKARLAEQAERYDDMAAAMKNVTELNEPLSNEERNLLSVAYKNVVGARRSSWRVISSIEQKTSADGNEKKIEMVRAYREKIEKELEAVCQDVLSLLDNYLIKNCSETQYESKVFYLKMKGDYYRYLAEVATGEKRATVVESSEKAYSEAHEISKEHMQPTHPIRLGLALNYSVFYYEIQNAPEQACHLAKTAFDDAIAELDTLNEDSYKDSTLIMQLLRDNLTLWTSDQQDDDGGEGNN
Description: FP.

For the next assay, the target named is T5, 14-3-3ε (human, UniProt P62258 1-255).
T5 chain: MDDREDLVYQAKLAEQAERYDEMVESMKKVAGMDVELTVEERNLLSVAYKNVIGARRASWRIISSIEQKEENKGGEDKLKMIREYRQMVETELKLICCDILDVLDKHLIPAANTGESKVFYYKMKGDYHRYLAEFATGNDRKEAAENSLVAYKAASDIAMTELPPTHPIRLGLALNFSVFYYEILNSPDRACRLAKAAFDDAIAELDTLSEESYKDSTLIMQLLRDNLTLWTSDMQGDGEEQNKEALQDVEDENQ
Description: FP.

For assay [4], the target named is T6, 14-3-3τ (human, UniProt P27348 1-245).
T6 chain: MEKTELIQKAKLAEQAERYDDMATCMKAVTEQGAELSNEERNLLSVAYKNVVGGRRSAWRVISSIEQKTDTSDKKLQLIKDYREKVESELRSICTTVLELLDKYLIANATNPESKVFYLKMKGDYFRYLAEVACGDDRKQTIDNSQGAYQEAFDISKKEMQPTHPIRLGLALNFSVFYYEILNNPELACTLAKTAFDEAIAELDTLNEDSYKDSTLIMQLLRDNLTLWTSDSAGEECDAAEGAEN
As to the kind of experiment: FP.

Assay [5] has as its target T7, 14-3-3γ (human, UniProt P61981 1-247).
T7 construct: 14-3-3 protein gamma, human; open reading frame inserted into pMAL2Cx; also called 14-3-3 gamma
T7 sequence (looked up): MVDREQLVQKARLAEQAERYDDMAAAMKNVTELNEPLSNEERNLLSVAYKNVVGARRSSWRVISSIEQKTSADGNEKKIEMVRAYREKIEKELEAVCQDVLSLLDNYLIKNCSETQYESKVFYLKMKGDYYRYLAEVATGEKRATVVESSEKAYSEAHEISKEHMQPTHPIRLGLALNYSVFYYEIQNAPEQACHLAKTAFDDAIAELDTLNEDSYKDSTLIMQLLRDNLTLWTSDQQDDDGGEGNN
As to the kind of experiment: fluorescence polarisation; 10 nM fluorescein-labelled peptide titrated with 14-3-3 protein (1 nM to 120 µM in the results, 100 µM to 1 nM in the methods); 20 mM MOPS, 150 mM NaCl, 0.005% (v/v) CHAPS pH 7.0; room temperature; monophasic fit. To be noted: both partners purified. A general note: Fluorescence polarisation rises when a labelled molecule tumbles more slowly, as on binding a larger partner.

Assay [6] addresses T8, 14-3-3ζ (human, UniProt P63104 1-245).
T8 construct: 14-3-3 protein zeta, human; open reading frame inserted into pMAL2Cx; also called 14-3-3 zeta
T8 sequence (looked up): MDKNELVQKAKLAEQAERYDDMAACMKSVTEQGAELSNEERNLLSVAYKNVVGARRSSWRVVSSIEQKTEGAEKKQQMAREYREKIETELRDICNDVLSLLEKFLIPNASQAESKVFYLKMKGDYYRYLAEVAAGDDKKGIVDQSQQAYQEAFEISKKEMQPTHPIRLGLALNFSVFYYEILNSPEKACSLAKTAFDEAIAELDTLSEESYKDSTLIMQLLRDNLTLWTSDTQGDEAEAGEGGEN
Described as above. To be noted: both partners purified.

The target of assay [7] is T9, 14-3-3η (human, UniProt Q04917 1-246).
T9 construct: 14-3-3 protein eta, human; open reading frame inserted into pMAL2Cx; also called 14-3-3 eta
T9 sequence (looked up): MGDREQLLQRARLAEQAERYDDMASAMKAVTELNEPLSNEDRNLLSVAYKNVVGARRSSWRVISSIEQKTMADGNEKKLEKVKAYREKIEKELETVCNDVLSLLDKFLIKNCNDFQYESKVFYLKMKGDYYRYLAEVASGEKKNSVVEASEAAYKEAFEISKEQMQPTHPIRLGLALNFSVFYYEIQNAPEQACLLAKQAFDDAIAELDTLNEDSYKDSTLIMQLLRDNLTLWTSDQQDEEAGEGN
Described as above. To be noted: both partners purified.

Assay [8] has as its target T10, 14-3-3τ (human, UniProt P27348 1-245).
T10 construct: 14-3-3 protein tau (theta), human; open reading frame inserted into pMAL2Cx; also called 14-3-3 tau
T10 sequence (looked up): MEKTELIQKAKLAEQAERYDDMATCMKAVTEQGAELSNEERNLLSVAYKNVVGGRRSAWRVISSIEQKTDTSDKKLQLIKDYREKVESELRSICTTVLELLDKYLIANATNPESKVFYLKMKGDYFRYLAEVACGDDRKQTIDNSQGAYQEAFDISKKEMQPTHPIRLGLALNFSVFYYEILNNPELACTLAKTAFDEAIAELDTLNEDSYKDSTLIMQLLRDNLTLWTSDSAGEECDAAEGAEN
The description is as above. To be noted: both partners purified.

Non-standard residues stand in square brackets, D forms with d. No end group written: not given here. pS = N[C@@H](COP(=O)(O)O)C(=O)O

B1: TASK-3 pS373 ΔV374 C-terminal fluorescent peptide (peptide, UniProt Q9NPC2 360-374, looked up)
peptide: SFTDHQRLMKRRK[pS]
modifications: also: fluorescein label, position not given here
notes: TASK-3 (KCNK9), human, C-terminal peptide with phosphorylated S373 but lacking the C-terminal valine V374; ends at pS373; source: synthetic peptide, bought: Peps4Life Sciences
For B1, the Kd (as a rule, a measure of binding affinity in units of concentration) worked out at 1600 nM in the assay with 14-3-3η [1]; 3300 nM with 14-3-3ζ [2]; 1200 nM with 14-3-3β; 1100 nM with 14-3-3γ [3]; 18000 nM with 14-3-3ε; 2400 nM in the assay with 14-3-3τ [4]. For the same molecule, the binding result with 14-3-3γ [5], in the assay with 14-3-3ζ [6], with 14-3-3η [7] and in the assay with 14-3-3τ [8] was “binds” in each case.
